Data as given in PMC3267040, “Structure of a Blinkin-BUBR1 Complex Reveals an Interaction Crucial for Kinetochore-Mitotic Checkpoint Regulation via an Unanticipated Binding Site” (Structure(London, England:1993), 2011).

Tests used:
[1] = biological target: T1, BUBR1_(57-220), recombinant protein (human, UniProt O60566 57-220); assay: fluorescence-based thermal shift assay; Tm of BUBR1_(57-220) without and with Blinkin S208-K226 peptide; conditions: both partners purified
T1 construct: BUBR1, human, residues 57-220 (TPR-containing domain); 15N,13C-labelled for NMR; also called native BUBR1; free BUBR1

[2] = biological target: T1, BUBR1_(57-220), recombinant protein; assay: ITC; BUBR1_(57-220) at 27 μM titrated against 200 μM of Blinkin peptide S208-K226; conditions: both partners purified

T1 sequence (O60566 57-220): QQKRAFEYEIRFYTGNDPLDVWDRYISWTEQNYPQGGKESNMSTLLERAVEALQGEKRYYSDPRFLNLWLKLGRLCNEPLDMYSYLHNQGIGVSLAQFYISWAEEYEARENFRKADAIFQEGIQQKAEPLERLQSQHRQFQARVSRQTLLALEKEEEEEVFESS

B1: Blinkin S208-K226 peptide (peptide, UniProt Q8NG31-2 208-226, looked up)
peptide: SSENKIDFNDFIKRLKTGK
notes: Blinkin (KNL1, CASC5), human, NCBI NP_653091.2, residues S208-K226; peptide synthesis is in the supplement; also called Blinkin peptide; source: synthetic peptide
Which results are given for B1?
increase of the Tm of BUBR1_(57-220) on addition of the peptide [1]: ~2 °C; Kd [2]: 9.3 ± 0.4 µM; dH [2]: -2.7 kcal/mol; stoichiometry N [2]: 1
